In data set [1] the target is T1, Ultrabithorax isoform IVa (UbxIVa);Extradenticle (Exd);Homothorax HM domain (HthHM) (Drosophila melanogaster?;Drosophila …, UniProt P83949-5;P40427;O46339 1-346;1-376;1-211, ||). In words: EMSA; increased with high-affinity overlapping site; EMSA: 6 nM 32P dsDNA probe, 200 nM Exd-HM, 30-180 nM Hox; 4% polyacrylamide gel, 120 V, 2.5 h, 4 C; buffer, salt and pH not given in material. Conditions: protein: recombinant;recombinant;recombinant; tags: His (pET21b);none (pET9a);His (pET21b); copies: 1;1;1; label: 32P.

For data set [2], the target named is T1, Ultrabithorax isoform IVa …. In words: EMSA; strong binding; EMSA: 6 nM 32P dsDNA probe, 200 nM Exd-HM, 30-180 nM Hox; 4% polyacrylamide gel, 120 V, 2.5 h, 4 C; buffer, salt and pH not given in material. To be noted: protein: recombinant;recombinant;recombinant; tags: His (pET21b);none (pET9a);His (pET21b); copies: 1;1;1; label: 32P. A general note: Mobility shift assays separate free from complexed probe on a gel.

Residue numbers refer to the chain shown, from its start.

T1 sequence (P83949 other isoform, or with tags, fused parts or gaps ||, chain 1 of 3): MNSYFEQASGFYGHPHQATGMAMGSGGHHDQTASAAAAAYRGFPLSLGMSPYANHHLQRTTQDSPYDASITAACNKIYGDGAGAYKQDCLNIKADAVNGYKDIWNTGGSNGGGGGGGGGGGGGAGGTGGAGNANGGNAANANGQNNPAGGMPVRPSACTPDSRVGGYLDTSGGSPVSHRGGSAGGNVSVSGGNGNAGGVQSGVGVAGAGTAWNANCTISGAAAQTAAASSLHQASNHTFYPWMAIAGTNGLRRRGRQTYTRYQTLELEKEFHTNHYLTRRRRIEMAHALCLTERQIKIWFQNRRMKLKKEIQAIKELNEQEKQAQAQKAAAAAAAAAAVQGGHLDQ
T1 sequence (P40427 whole entry, chain 2 of 3, the tested form may be a part, canonical isoform): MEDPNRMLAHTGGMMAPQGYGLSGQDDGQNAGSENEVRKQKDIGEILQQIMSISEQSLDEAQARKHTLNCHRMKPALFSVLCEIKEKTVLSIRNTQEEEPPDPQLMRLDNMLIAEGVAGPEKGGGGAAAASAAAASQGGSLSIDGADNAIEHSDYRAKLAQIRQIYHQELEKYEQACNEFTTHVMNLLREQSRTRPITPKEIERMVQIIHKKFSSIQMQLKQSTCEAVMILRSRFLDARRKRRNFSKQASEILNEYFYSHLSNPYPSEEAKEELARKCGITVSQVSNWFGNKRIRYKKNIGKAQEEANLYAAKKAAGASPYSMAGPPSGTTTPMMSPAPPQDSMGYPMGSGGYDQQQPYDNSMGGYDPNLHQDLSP
T1 sequence (O46339 1-211, chain 3 of 3): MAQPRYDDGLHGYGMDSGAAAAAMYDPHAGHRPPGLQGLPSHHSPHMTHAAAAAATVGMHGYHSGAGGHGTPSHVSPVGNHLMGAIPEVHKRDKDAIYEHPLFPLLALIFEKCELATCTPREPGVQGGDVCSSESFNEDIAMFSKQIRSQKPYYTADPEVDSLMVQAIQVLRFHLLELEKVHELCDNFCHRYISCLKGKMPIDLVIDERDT

B1: main class 1 + overlapping high-affinity class 3 oligo (dsDNA)
DNA 1: ACGGGATTTGATTGATTTATTAGAATTCGGCGACGAACGAAAGC
DNA 2: GCTTTCGTTCGTCGCCGAATTCTAATAAATCAATCAAATCCCGT
Regarding B1, the binding result in data set [1] is on record as “binds”.

B2: mutant main + high-affinity overlapping class 3 oligo (dsDNA)
DNA 1: B1 DNA 1 with T8A, T9C
DNA 2: B1 DNA 2 with A36G, A37T
In the case of B2, the binding result in data set [2] is listed as “binds”.

Values taken from publication PMC6689074, “In vivo Hox binding specificity revealed by systematic changes to a single cis regulatory module”.
